One may read the Kd as the free concentration of one partner at which half of the binding sites on the other are occupied at equilibrium, for simple one-to-one binding. Low readings indicate tighter binding, high ones weaker binding.

Experimental findings from US9981005 (dated 2018) are described below.

Where two headings read alike, the source gives them in different places. Where no end group is shown, it is not given here. [ ]: non-standard residue; d: D form. pT = C[C@@H](OP(=O)(O)O)[C@H](N)C(=O)O; pS = N[C@@H](COP(=O)(O)O)C(=O)O; Flu = fluorescein

The target of assay [1] is T1, Skp1-FBXW7 complex (human FBXW7 residues 263-707 with truncated Skp1) (UniProt P63208 1-163).
In assay [2] the target is T1, Skp1-FBXW7 complex (human FBXW7 …). The assay can be described thus: fluorescence polarisation.

Flu-VPP[pT]PPG[pS]H [Flu-VPPpTPPGpSH (doubly phosphorylated fluorescein-tagged DISC1 phosphodegron peptide)] yielded a Kd in assay [1] of 1200 nM.
Regarding Flu-VPP[pT]PPGSH [Flu-VPPpTPPGSH (singly phosphorylated fluorescein-tagged DISC1 phosphodegron peptide)], in assay [1], the Kd worked out at 2300 nM.
The molecule AKKAMLSEQNRASPLPSGLLTPPQSGKKQSS (other) [Cyclin E (test agent of the FP assay)] displayed a Kd in assay [2] of 2000 nM.
